{"source": "the DeepSol protein solubility set", "data": [{"assay": "soluble on expression in E. coli; label from the status in PepcDB or PDB records", "values": [{"sequence": "GMNPFQNSFGGHIPQDVAGKQGENVIFIVYNLTDSPDTVDKVKDVCANFSAMIRSMRNRFPDMQFSCTMGFGADAWTRLFPDKGKPKELSTFSEIKGEKYTAVSTPGDLLFHIRAKQMGLCFEFASILDEKLKGAVVSVDETHGFRYMDGKAIIGFVDGTENPAVDENPYHFAVIGEEDADFAGGSYVFVQKYIHDMVAWNALPVEQQEKVIGRHKFNDVELSDEEKPGNAHNAVTNIGDDLKIVRANMPFANTSKGEYGTYFIGYASTFSTTRRMLENMFIGSPAGNTDRLLDFSTAITGTLFFVPSYDLLGELGE", "soluble on expression in E. coli": "soluble"}, {"sequence": "GMPIDTPTDASPADGSASDTVFFGIMSGLELGTFVPGQRLVETDLVAHFGVGRNSVREALQRLAAEGIVDLQRHRGAVIRRLSLQETLDVLDVAERMTGLLARAATRGSGNQPQVQALRASVQALVAAEKAQDGETFSNARRHFYRTLLEMGDNRELRRLFPTIHMPIVHAQHRLASLRQMRLDDYRRIATAVLAGEPDAAEAAGAAHVKNVRGAILDRQPA", "soluble on expression in E. coli": "soluble"}, {"sequence": "GMPNFSKNEEVLFSAVNEIFEEKIPFNKIIGLKVRFISPEQVKLSFEMRDELIGNAIRRMLYGGVISSAIDMTAGLAAFMGFQEKMSGKPMEEKLAMIGRLSTMSLHVEYLRPGLGREFVCTGYNVRTGNKVAVIRTELMNDQDELIAVGSVSYILV", "soluble on expression in E. coli": "soluble"}, {"sequence": "GMPPVWTLPRLYQHFQGAIDLELWTIPYYLTVLYSIKDPTTVPYRLIQAAVYQEMLHAQLVSNIANAYGYSPTLSAPEYVGTAVPHIDFDLDTPNPTSIFTPYSAELGPLDLTRVNTMCLIEYPEWRTQREPDLADDVTDYGSIGEFYDALRVGMEQLRGHVRGNQKQMDEFGPFYQNSPPLTVTESGDAGFLQALTLVDIIVDQGEGQTQPVETIPTEFQNTADGFQDAWPHFQRFDFIRRMPNWPGVYTGVTDPPAGSPGAEAQARLIADFAGFLDILNGMFSGGGAPPAFGVQMAKLGGDILSCWKLGAVPRYS", "soluble on expression in E. coli": "soluble"}, {"sequence": "GMQGIAFQDAYPDDLSHCYGCGRNNEQGHQLKSYWRGEQTIAHFMPKPFHTAIPGFVYGGLIASLIDCHGTGSASAAAQRALEQAGEQLDEPPRFVTAALNIDYLAPTPMGVELELVGEIKEVKPRKVVVEIALSADGKLCARGHMVAVKMPETMAATSA", "soluble on expression in E. coli": "soluble"}, {"sequence": "GMSAPEDWNSQVIQEFRANGGRVGGNFEGAPMVLVHHVGRKTGKAAVTPMMYLPSDDDPGTIYVFASKAGAASNPAWYYNLTTAGTAQVEVGTETYAVGVTEVTGEDRDRIYSEQARRYPGFADYEKKTAGIRTIPVLALTRT", "soluble on expression in E. coli": "soluble"}, {"sequence": "GMTFEPYPFERLRALLKEITPKKRGLDLGIGEPQFETPKFIQDALKNHTHSLNIYPKSAFEESLRAAQRGFFKRRFKIELKENELISTLGSREVLFNFPSFVLFDYQNPTIAYPNPFYQIYEGAAKFIKAKSLLMPLTKENDFTPSLNEKELQEVDLVILNSPNNPTGRTLSLEELISWVKLALKHDFILINDECYSEIYENTPPPSLLEACMLAGNEAFKNVLVIHSLSKRSSAPGLRSGFIAGDSRLLEKYKAFRAYLGYTSANAIQKASEAAWLDDRHAEFFRNIYANNLKLARKIFKNTLIYPYSFYVYLPVQNGENFAKTLYQNEGIITLPALYLGRNRIGADYVRLALVYDTPLLEKPLEIIETYRENHA", "soluble on expression in E. coli": "soluble"}, {"sequence": "GMTLPPYHTPLPAETLRALSIPAPWTFGLADRVRFGELDAIGHVNHTAYLRWYESFRLPFLKARHVTDYGPTSPRLVLKQVHCTYLAEMGMGEDYVITGRVSNFRTTSFTMEFACWRLGDAVECTSEGSAVVVLLNRDGSGRYPIPEAGRASFVTEDGVLAAG", "soluble on expression in E. coli": "soluble"}, {"sequence": "GPGGSPGGLQKRHARVTVKYDRRELQRRLDVEKWIDGRLEELYRGREADMPDEVNIDELLELESEEERSRKIQGLLKSCTNPTENFVQELLVKLRGLHK", "soluble on expression in E. coli": "soluble"}, {"sequence": "GPGSGLTELQMRARRCPNRQARIDWSEGEVRSFYQALSQYGTDFSAIAVLFPSRSRRDIKRLYQREMRQKPKEVQAALNQKHPIDMAVFEVRYEAKKKEAQQPVKMKKLNSEELAFLDEIAGRQPSESAMHMKGEELEVPVPAATLGGVEEATAAPPSRLRKRPRGTHQADSEDGPESKRATKEIPPAADDDFDMEQESFFDMVVRHEREDNAPLDMLFAAQLEQGQQQHLAALEDSDFSFE", "soluble on expression in E. coli": "soluble"}, {"sequence": "GPGSMACARDHLRQTRTHQRHASTRDGQRMRAVSLAADPACTHPPTHTHTHIYTPIYVCRGFVCVTPQWRTELFNVVLLWRRAHTSLLSAACLCPYAQASPSCLHASFLSRLPRLSLSLSPCSCLHPHSTGVFAYIVFLRCRAATQNTSPVSSCVVRLVTRDLCAQSPTPPLPALCGHRNLVSLHRRKTPRLKRRVRTQATQRSDHRSSLIMPVFHAVMSVKESERVERIAPVKNRAWGLRFQCASCNEESTGMMYVNQTEQHERDGGMHNFVSKCKLCKADITADVLPVPAGTGYYSAEEENPANVIAAFEVRGGRPVELEIDNQWMIVTAGGGLFEDVDLSQEWYDYDESSQATVSVAGVSVDFEKSKKK", "soluble on expression in E. coli": "not soluble"}, {"sequence": "GPGSMAHSLTWKLLSPEQTHECLTAPDVPSIRSVLKKIDEACDGKLIGAAKYNEGKVMIVLDMLAHLILFCKSRSMSPEKVSTLVGIVIKIHEESMSGGYTRAKSYHLMRDLMIKHSVPRPPFSCGVFTVRDAQEIDEYMLRSYYRHYKMYFYAFVPRQVMNVRCLDVTHIHQVPPVGLPSLSTAVVESEWRTKVEEQRREAEEQAMQEGEIASDAYEEERMRNRLLADPHYSDGIREQLECIKKEVSSKAVGRLDEIEMRLQEIEKKVAESFARSDSKQGRRKK", "soluble on expression in E. coli": "soluble"}, {"sequence": "GPGSMASTSGPASLEEAALASLGNYSPEQLQMAETALRAVLMEKVQALAAEHGDAFIQSLVQKEIARTRKMETELANVKKRLGVQERCVDSMRMDVRKVKAQEEKSKYICQNLQETARRREQLTEKMQPEMEAYRSDVRERVSENVQSIWAECEKRRERVETVEAEVTELEAGLAHKKETFERSFAEFQDGLKGRTAEYQELIVAYQEATKEVELIEAQLMLVRRERQSVETTRAALQQQLEVYEKQFDGFAEAVMKPEDVEALAKRQHDQAQMRITELEAEKTNVHQQRLQMDKELTDLRAKHASLKREMQQLEKAKTAAEKKCRQAQQSRQEKK", "soluble on expression in E. coli": "not soluble"}, {"sequence": "GPGSMDDGFSRILLAWFSNNPSFGKTIPVTAGQAVLNTLYIRYVVNKSVSFEDILAYQFRWVSANDAATEVFNKFTDGKESMTSEQLGKFLRDVQRSDVTDRQIVEKFKYCFGGGIHKYNFISYNGSVLTNNAIDPARTSDVWQDMTQSFTHYMVSCARIEAEEDLKRAAADGTRALVLNINKASNGKLMVGSCELQTILEGVKKNGFATNTYPIVLCLSPGTPMPTPVQDEVAKMINDILESAVAEGLMFEGAMINDPKFSPGALRNKVLVMSHQSRLKPFIGFLVADMNKDGLGVRVTDVMEGTPASKGGVLKDDWLTHINGIPIQNKQHLRETLARLKAGDEFTVRRENLHDVKVVVGGAIDPQDTTASASLSSITFFKYSDSNDPKPWDTERIPASSLATTKLTRKDLLTHFAFCTVNSAEASTELPDAEGKAASLGIQFVDVDNSERCLPWTRGRFSDNGRCGYILKTDIDSAKSPELSLSVIGGPRLLNCSPLTSMNVTIHGAGTARVNGSQVSFTDCNQATIAVVQMTFEANGAERTFTSAFCPGLLRPGYRALPSVPFGEERASKKQIHGIYCFIK", "soluble on expression in E. coli": "not soluble"}, {"sequence": "GPGSMFVEDKGLISEANLRALHVGTLKLHLFLQEWILPVSFSEKYGYKKEVLEEIIERYGSGSAAEARWTFEQLLGECEVPGQISWLEEHISEDIPYFYIADLFDSWCNLHRNLFVCSADAHETAKRSDDRFESELLCKGVIEKAISGVLPYDTAVRALCILAIGCRTNTQFMLKTIKPDFIINRYKLYTDDLAQPIDGNTDVTPLAEVNAATIGLLNALNTELQEQEKLKLWKSSTARKLPLLMQLNATPWCDSVDSLRRGLKGITSNNAATLLEEATQYFRCSELSK", "soluble on expression in E. coli": "not soluble"}, {"sequence": "GPGSMHFPSIVFRRHGGRQWMQQQSRDPFVLEARRRGYVARSAFKLLEMDDKFTLFSRGNTRVVVDIGCSPGSWLQVIRERCGDKCAVFGVDVLRVASTVTGAVCIQGDFTNPAVREELLARMVTVRAAGVVDVVTSDMCLNRGTGSTSDRQKQEELNRSALAFALEQLVPGGNFVCKVLGSPTAYEELRRDTCRWFVRTDICKPSSSRLTSDEAFMVCRGKREIPRDRSGGCDGTYGGRFGLDDWPGQLRGSPRRRKP", "soluble on expression in E. coli": "not soluble"}]}]}
